What was measured:
[1] = molecular target: CUB-domain-containing protein 1 (CDCP1) (human) (UniProt Q9H5V8); assay: flow cytometry on PC-3 cells
[2] = molecular target: T1, Integrin alpha3/beta1 (human, UniProt P26006 33-1051; P05556 21-798); assay: immunoprecipitation from PC-3 membrane lysate with biotinylated Fab, mass spectrometry
T1 construct: also called α3β1
T1 sequence (P26006 33-1051 limits assumed, chain 1 of 2): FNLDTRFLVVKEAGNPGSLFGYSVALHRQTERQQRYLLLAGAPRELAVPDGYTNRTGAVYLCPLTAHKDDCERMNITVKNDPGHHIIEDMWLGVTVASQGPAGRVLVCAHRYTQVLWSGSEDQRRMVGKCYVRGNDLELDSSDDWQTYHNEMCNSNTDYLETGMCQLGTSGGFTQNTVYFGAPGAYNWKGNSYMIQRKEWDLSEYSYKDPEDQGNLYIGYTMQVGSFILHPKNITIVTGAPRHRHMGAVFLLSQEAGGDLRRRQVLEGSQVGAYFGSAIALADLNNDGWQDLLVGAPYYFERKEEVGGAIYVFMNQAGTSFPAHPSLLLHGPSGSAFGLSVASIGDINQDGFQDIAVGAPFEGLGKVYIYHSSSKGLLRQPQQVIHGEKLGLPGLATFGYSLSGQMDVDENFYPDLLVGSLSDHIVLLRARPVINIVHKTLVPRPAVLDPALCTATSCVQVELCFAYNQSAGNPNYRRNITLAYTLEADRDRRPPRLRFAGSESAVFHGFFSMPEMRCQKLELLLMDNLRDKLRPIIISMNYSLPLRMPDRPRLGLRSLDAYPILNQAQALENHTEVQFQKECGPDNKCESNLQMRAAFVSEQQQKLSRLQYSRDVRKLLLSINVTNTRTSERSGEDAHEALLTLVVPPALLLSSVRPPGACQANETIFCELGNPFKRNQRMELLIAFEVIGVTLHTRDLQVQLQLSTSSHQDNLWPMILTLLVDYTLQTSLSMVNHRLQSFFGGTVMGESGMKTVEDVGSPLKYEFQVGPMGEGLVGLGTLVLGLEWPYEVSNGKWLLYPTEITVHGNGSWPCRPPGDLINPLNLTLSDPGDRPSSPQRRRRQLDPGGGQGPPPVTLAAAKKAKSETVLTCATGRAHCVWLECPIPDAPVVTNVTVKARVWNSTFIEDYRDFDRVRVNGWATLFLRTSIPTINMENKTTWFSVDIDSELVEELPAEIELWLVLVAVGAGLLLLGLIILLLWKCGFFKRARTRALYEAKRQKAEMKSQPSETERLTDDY
T1 sequence (P05556 21-798 limits assumed, chain 2 of 2): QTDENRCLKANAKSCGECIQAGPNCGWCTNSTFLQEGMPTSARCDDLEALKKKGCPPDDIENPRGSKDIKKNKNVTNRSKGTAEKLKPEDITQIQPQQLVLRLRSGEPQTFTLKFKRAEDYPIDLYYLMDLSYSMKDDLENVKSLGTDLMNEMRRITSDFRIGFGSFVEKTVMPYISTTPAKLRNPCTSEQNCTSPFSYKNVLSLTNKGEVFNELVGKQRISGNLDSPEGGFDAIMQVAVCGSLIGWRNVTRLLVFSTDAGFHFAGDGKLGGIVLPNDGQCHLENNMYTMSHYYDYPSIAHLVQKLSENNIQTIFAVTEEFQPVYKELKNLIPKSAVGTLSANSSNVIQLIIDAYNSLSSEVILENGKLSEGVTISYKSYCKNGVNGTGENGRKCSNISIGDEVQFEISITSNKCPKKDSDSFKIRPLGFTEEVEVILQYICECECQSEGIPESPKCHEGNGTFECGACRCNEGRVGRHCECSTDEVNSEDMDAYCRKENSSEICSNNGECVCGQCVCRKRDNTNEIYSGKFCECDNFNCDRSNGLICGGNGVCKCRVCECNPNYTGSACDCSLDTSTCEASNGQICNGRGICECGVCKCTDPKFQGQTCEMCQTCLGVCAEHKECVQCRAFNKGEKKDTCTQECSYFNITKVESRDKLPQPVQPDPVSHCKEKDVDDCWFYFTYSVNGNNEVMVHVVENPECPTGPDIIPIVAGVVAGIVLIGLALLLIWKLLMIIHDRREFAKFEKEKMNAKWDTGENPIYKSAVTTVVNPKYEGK
Procedure: PC-3 cell membranes (10⁸ cell equivalents/mL) in Nonidet P-40 Lysis Buffer (1% Nonidet P-40, 50 mM Tris.HCl pH 7.5, 0.15 M NaCl, 10% glycerol plus Complete Protease Inhibitors) were incubated with 50 μg/mL chicken egg white avidin for 30 min on ice. Insoluble material was removed by centrifugation for 30 min at 150,000 g. The lysate was precleared with normal rabbit serum and protein G Sepharose beads (Amersham-Pharmacia, Piscataway, N.J.). Antigens were captured by adding biotinylated Fabs (10 μg/mL) to the lysate and incubating overnight at 4° C. Immobilized streptavidin was added (50 μL of packed beads per mL) for 3 h at 4° C. with gentle mixing, followed by five washes with Nonidet P-40 Lysis Buffer. After SDS-PAGE separation, antigen bands were cut from the gel.

percent saturation of PC-3 cells at 160 nM Fab [1] [%]	binding result [2]	Binder
80		Fab 25A11 (murine Fab) (Fab, V domains shown) VH: EVQLQQPGAELVKPGASVKMSCKASGYTFTSYYMYWVKQRPGQGLEWIGEINPSHGGTNFNEKFKNKATLTVDKSSSTVYMQLSSLTSEDSAVYYCTRGGNYPYFAMDYWGQGTSVTVSS VL: DIQMTQTTSSLSASLGDRVTISCRASQDISNYLNWYQQKPDGTVKLLIYYTSRLHSGVPSRFSGSGSGTDYSLTISNLEQEDIATYFCQQGNTLPWTFGGGTKLEIKR
	binds	Fab 23E9 (Fab, V domains shown) VH: EVELQQSGAELVKPGASVKLSCKASGYTFTNYYMHWVKQRPGQGLEWIGEINPSSGGTNFNEKFKSKATLTVDKSSSTAYMQLSSLTSEDSAVYYCTRFDRTENGMDYWGQGTSVTVSS VL: DNVLTQSPASLAVSPGQRATISCKASQSVDYDGDNYMNWYQQKPGQPPKLLIYAASNLESGIPARFSGSGSGTDFTLNIHPVEEEDAATYFCQQSDEDPYTFGGGTKLEIKR
	binds	Fab 61E10 (Fab, V domains shown) VH: EVQLQQSGAELVKPGASVKLSCKASGYTFTNYYMHWVKQRPGQGLEWIGEINPSSGGTNFNEKFKSKATLTVDKSSSTAYMQLSSLTSEDSAVYYCTRFDRTENGLDYWGQGTSVTVSS VL: DIVMTQSPASLAVSLGQRATISCKASQSVDYDGDNYMNWYQQKPGQPPKLLIYAASNLESGIPARFSGSGSGTDFTLNIHPVEEEDAATYYCQQSNGDPWTFGGGTKLEIKR
	binds	Fab 84H7 (Fab, V domains shown, also called 84H7 (63C10)) VH: EVQLQQSGAVLLKPGASVKLSCTASGFNIKDTYIHWMKQRPEQGLEWIGRIDPADGNTKYDPKFQGKATITADTSSNTAYLQLSSLTSEDTAVYYCTTAFYYSMDYWGQGTSVTVSS VL: DIVLTQSQKFMSTSVGDRVSVTCKASQNVGTNVAWYQQKPGQSPKALIYSASYRYSGVPDRFTGSGSGTDFTLTISNVQSEDLAEYFCQQYNSYPRTFGGGTKLEIKR
	binds	Fab 36C1 (Fab, V domains shown) VH: EVQLQQSGAELVKPGASVKLSCTASGFNIKDTYIHWMNQRPEQGLEWIGRIDPADGNTKYDPKFQDKATITADTSSNTAYLHLSSLTSEDTAVYYCTTAFYYSMDYWGQGTSVTVSS VL: DIVMTQSQKFMSTSVGDRVSVTCKASQNVGTNVAWYQQTPGQSPKALIYSASYRYSGVPDRFTGSGSGTDFTLTINNVQSEDLAEYFCQQYNSYPRTFGGGTTLEIKR
